The values below are quoted from earlier work in publication PMC3308923.

This data set concerns the target HIV-1 capsid CA (Human immunodeficiency virus 1) (UniProt O93182). The following applies: cited from earlier work.

Sequence of HIV-1 capsid CA (Human immunodeficiency virus 1) (O93182 133-363): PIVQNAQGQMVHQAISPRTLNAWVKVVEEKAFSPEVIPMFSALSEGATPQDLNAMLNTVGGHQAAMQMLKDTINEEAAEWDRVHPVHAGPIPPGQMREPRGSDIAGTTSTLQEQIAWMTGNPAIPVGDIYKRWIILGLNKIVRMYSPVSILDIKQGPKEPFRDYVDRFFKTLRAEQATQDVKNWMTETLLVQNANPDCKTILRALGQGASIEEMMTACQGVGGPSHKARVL

In the case of CAI peptide, the Kd (usually the equilibrium constant for the complex coming apart) was 15 µM.
